The source of these data is PMC5683418 (Molecular cell, 2017).

In the assay the target is T1, highly purified Flag-HA-tagged NRF2 (human, UniProt Q16236 1-605).
T1 sequence (looked up): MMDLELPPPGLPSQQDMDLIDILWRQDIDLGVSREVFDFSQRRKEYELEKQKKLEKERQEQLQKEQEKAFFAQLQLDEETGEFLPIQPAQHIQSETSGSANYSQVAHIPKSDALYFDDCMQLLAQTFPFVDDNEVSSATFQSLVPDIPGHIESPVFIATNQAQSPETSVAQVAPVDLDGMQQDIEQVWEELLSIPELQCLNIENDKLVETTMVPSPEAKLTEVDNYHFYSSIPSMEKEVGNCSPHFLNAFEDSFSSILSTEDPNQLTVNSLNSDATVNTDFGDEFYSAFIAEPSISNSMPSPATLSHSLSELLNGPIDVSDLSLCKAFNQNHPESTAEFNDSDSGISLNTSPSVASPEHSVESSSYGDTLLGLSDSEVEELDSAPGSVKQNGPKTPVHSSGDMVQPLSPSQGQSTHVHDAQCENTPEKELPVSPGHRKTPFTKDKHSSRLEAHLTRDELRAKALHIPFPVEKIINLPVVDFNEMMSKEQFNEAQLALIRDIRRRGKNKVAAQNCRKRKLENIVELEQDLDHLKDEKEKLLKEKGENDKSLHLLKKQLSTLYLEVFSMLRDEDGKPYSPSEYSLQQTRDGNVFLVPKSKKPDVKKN
As to the kind of experiment: pull-down.

B1: GST-ARF (1–64) (domain or fragment, UniProt Q8N726 1-64, looked up)
chain: MVRRFLVTLRIRRACGPPRVRVFVVHIPRLTGEWAAPGAPAAVALVLMLLRSQRLGQQPLPRRP
Regarding B1, the binding result was “binds”.
